According to the RNAGym collection of RNA variant scans (doi:10.1073/pnas.2313332121):

B1: TPR t1 (parent)
chain: GACCAAUCUGCCCUCAGAGCUCGAGAACAUCUUCGGAUGCAGAGGAGGCAGGCUUCGGUGGCGCGAUAGCGCCAACGUCCUCAACCUCCAAUGCAUCCCACCACAUGAUGAUGCCUGAAGAGCCUUGGUUUUUUG

Variants of: B1
Assay: polymerase ribozyme fitness, log enrichment relative to wild type (log ratio); higher = more active; in vitro selection for triplet polymerase activity
In short: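 PCR was used to build mutant libraries for each subunit of a heterodimeric triplet polymerase ribozyme, which were then transcribed. A single in vitro selection round, in triplicate, used a frozen incubation at −7 °C and recovered extended constructs by gel excision, streptavidin beads and RT-PCR. Fitness is the logarithm of genotype enrichment relative to wild-type enrichment, averaged over replicates with inverse-variance weights. The logarithm is base 2, and after Illumina sequencing only genotypes with ≥10 input reads and ≥1 read per output were kept.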

Point of comparison: C56A G117A U125G G128C, “polymerase ribozyme fitness (log ratio)” value -4.73. Against it:
- U55A C88A — higher, 0.08
- U54G U59A C80U C123A U129C — higher, -1.82
- U55A G69A C94A — higher, -4.1
- U54C C82U A83C C115G G117A U129C — higher, -4.19
- U54C G120A — higher, -0.357
- C56A G69U C79U A100U A103C — higher, -3.37
- C56G C70U C88U U106A — higher, -2.44
- U54G U78A G93U — higher, -4.13
- C56G C79A C115A U131A — higher, -0.673
- U55C A66G A90U — higher, -4.46
- U55C C72G — higher, -0.713
- U54G C72U U129C — higher, -0.965
- U55G G71A — higher, -1.19
- C56A G110C — higher, -2.63
- C56A G110A — higher, -0.447
- U55G C62G — higher, -0.626
- U55G C62A — higher, -0.186
- U54C G69A U112C — higher, -0.483
- U55C C56U U78C G93A C101A — higher, -1.12
- U55G C104A — higher, -1.59
- C56G C62U A105U U129C — higher, -3.68
- U54G C85A — higher, -1.99
- C56A C64U G120C — higher, -2.77
- U55C G61C C80A — higher, -3.32
- U54G C85G G113C A118C — within 0.2 log units, -4.79
- U54G G71A — within 0.2 log units, -4.72
- U54G U59C U130A — higher, -1.81
- C56A C88U — higher, -0.627
- C56A C88A — higher, -0.627
- C56A G69U A108G U112C G117A U134C — higher, -3.02
- U54G G63C C70U — higher, -1.73
- C56A U59G — higher, -1.14
- U55G C56G U78A C99U U131A — higher, -4.29
- U54C G58A U92C — higher, -0.614
- U55C G61U G113A — higher, -1.64
- U55C A83C U116C — higher, -2.32
- U55G C64U A90C U92G C101A — higher, -3.82
- U55C C64U — higher, -0.472
- C56A C79G U87A — higher, -1.58
- U55A U112A — higher, 1.77
- U54G C56G A83C G120U — higher, -1.88
- C56G A90G G127C — higher, -2.21
- C56A G63A U78C — higher, -4.18
- C56G A66U — higher, -1.02
- C56G A91C G117C A119G — higher, -1.73
- C56A U112C — higher, -0.107
- U55G A66U A83U — higher, -3.53
- U55A C73U — higher, 0.172
- U54C C97A — lower, -5.83
- C56A C104U G117A — higher, -1.3
- C56A C124A — higher, 1.04
- U54G G120A — higher, -0.587
- C56A C98U — higher, -1.91
- C56A C98A — lower, -5.59
- U54C C56G U131G — higher, -1.34
- C56G A91C C123A — higher, 0.632
- U55C A111U — higher, -4.15
- C56A A66U G71C G120U — lower, -7.24
- U55C A83G C85U C124A — higher, 0.55
- U55G C72G C82U A100U G113U — lower, -5.31
- C56G C72G C82A C114U — within 0.2 log units, -4.76
- U55G G57A — higher, -0.536
- U54C U59C C94U A111G G128A U131A — higher, -3.64
- C56A G135U — higher, -1.7
- U55G U96A C115U — higher, -2.35
- U55G G58A U130A — higher, -0.383
- C56A C62U C85U — higher, -1.64
- U55C C79A — higher, -2.08
- C56A A95C C102A — higher, -3.39
- C56A A83G U129G — higher, -2.3
- U55G C56A C79G C124U — higher, -0.518
- C56G A90C A121G — higher, 1.01
- U54C U96A — higher, -0.835
- U55C U59A C88U — higher, -0.406
- U54C G57U C115G — higher, -1.53
- C56A G63U — lower, -4.97
- C56A G63A — higher, -2.26
- U55C G57A U106A G110U C123U — higher, -3.04
- C56A C79U U109A C123G — lower, -6.51
- C56A A105G A111C G113A — lower, -5.31
- C56G A66G C88U C115A — higher, -1.71
- C56A U81A C102A — higher, -3.37
- U55A A66G C101G — higher, -2.92
- C56G A84G C114U — within 0.2 log units, -4.61
- C56A C72A C76U U116G — higher, -3.97
- U55A G77C C104A — higher, -1.93
- U55A C85A C115G — higher, -3.37
- C56A C82U — higher, -0.413
- C56A U130C — higher, -0.155
- C56A C99U A121C — higher, -2.01
- C56A A108G G117U — higher, -3.81
- U54G C72G U129A — higher, -2.34
- C56A C82U C104U G122A U125A — higher, -1.2
- C56A C64U C114A — higher, -2.59
- C56A G69A U133C — higher, -2.92
- U54G U87A — higher, -0.0841
- U54G U87C — higher, -0.0304
- C56G A68U — lower, -6.1
- U54G U59C — higher, -1.85
- U55G C56G A68G — lower, -5.14
- U55A G61U C85A C94A — higher, -0.999
- C56G A74U G110A U116G C124G G135U — lower, -5.19
- U54C C64U G77U G113C U132A G135U — higher, -3.36
- C56G C79U U92A — higher, -3.45
- C56A U109C — higher, -3.16
- C56A U109G — higher, -4.29
- C56A U109A — lower, -5.84
- U55C G63U — higher, -1.09
- U54G G113U — higher, -3.26
- U54G G69U — higher, -0.782
- U54G G69C — lower, -6.2
- C56A C73U C88U U126G — higher, -3.16
- U55C C56U U59C — higher, -0.103
- U54G U87C C115G — higher, -1.72
- U54G A121G — higher, 1.62
- U55G C76A — higher, -0.0105
- U55C G113U — higher, -3.3
- U55C G113A — higher, -1.89
- C56A C114A — higher, -1.74
- C56A C114U — higher, -2.03
- C56A C70A G77C — higher, -3.23
- U55A G69U — higher, 0.503
- U54G G122A G128C — higher, -2.84
- C56A C62A U78C C79U — higher, -4.08
- U55G G113C — higher, -0.955
- C56A C82A C88U — higher, -0.846
- C56A C80U C102A C124U — higher, -2.1
- C56A C64U C115A U126C — higher, -2.05
- C56G C72A C79U — higher, -1.41
- U55G C88A C115U C124A G128U — higher, -4.24
- U55G C56U G117A G135C — higher, -2.53
- U54G U87C U92G — higher, -2.64
- C56A U112A C114A U116G — lower, -6.59
- C56A A95C U106A C124U — higher, 0.424
- U54G C124U — higher, 1.5
- U55G C73A — higher, 0.256
- U55G C72A U106G G113U U133A — lower, -5.76
- U54C G61U U116A U131C — higher, -2.5
- C56A C123U — higher, 1.2
- U55G C82A — higher, -0.266
- U54G C82A C94G C124U — higher, 0.658
- U55A C86G U130A — higher, -0.641
- C56A A84G C104U G120A — higher, -1.12
- C56A G77U — higher, -0.278
- C56A G77C — higher, -0.0761
- U54C U133A — higher, -0.0319
- C56G A111U — higher, -2.49
- C56A C94A — higher, -1.2
- C56A C79G — higher, -0.642
- U54G C89A U106A — higher, -2.52
- C56A U125G — higher, -1.39
- U54C G61A U81A U96A — higher, -1.36
- C56G C79A A83U A90C C114A — lower, -7.42
- U54C A75G C79A — higher, -0.763
- C56G A83U C115U — higher, -2.71
- U55C U87G G135U — higher, -1.63
- U55G G69A — higher, -1.67
- U55G G69C — higher, -1.57
- U55C G93C U133A — higher, -0.554
- C56G A90U U92G C97U — higher, -2.65
- U54G G60A U87A A95G G110C — lower, -6.6
- U54G C82A G120U — higher, -0.425
- U55C G57U A66C C123G — higher, -0.734
- C56A C70A — higher, -2.72
- U55C G71A A84U C102A C104U — higher, -3.41
- C56A C72U C104A C124U — higher, -0.00796
